We go through one substance from PMC7335163.

The target of the test is GFP-tagged R2910Q UNC80 mutant (mouse) (mouse) (UniProt Q8BLN6). Kind of test: co-IP; HEK293T co-transfected with NALCN or UNC79 and GFP-tagged UNC80 constructs; IP with anti-GFP, blot anti-NALCN or anti-UNC79; RIPA buffer (IP buffer with 0.5% deoxycholate and 0.1% SDS); 4 °C (Fig. 8a-c, f, g).
UniProt Q8BLN6, sequence (Q8BLN6 whole entry R2910Q): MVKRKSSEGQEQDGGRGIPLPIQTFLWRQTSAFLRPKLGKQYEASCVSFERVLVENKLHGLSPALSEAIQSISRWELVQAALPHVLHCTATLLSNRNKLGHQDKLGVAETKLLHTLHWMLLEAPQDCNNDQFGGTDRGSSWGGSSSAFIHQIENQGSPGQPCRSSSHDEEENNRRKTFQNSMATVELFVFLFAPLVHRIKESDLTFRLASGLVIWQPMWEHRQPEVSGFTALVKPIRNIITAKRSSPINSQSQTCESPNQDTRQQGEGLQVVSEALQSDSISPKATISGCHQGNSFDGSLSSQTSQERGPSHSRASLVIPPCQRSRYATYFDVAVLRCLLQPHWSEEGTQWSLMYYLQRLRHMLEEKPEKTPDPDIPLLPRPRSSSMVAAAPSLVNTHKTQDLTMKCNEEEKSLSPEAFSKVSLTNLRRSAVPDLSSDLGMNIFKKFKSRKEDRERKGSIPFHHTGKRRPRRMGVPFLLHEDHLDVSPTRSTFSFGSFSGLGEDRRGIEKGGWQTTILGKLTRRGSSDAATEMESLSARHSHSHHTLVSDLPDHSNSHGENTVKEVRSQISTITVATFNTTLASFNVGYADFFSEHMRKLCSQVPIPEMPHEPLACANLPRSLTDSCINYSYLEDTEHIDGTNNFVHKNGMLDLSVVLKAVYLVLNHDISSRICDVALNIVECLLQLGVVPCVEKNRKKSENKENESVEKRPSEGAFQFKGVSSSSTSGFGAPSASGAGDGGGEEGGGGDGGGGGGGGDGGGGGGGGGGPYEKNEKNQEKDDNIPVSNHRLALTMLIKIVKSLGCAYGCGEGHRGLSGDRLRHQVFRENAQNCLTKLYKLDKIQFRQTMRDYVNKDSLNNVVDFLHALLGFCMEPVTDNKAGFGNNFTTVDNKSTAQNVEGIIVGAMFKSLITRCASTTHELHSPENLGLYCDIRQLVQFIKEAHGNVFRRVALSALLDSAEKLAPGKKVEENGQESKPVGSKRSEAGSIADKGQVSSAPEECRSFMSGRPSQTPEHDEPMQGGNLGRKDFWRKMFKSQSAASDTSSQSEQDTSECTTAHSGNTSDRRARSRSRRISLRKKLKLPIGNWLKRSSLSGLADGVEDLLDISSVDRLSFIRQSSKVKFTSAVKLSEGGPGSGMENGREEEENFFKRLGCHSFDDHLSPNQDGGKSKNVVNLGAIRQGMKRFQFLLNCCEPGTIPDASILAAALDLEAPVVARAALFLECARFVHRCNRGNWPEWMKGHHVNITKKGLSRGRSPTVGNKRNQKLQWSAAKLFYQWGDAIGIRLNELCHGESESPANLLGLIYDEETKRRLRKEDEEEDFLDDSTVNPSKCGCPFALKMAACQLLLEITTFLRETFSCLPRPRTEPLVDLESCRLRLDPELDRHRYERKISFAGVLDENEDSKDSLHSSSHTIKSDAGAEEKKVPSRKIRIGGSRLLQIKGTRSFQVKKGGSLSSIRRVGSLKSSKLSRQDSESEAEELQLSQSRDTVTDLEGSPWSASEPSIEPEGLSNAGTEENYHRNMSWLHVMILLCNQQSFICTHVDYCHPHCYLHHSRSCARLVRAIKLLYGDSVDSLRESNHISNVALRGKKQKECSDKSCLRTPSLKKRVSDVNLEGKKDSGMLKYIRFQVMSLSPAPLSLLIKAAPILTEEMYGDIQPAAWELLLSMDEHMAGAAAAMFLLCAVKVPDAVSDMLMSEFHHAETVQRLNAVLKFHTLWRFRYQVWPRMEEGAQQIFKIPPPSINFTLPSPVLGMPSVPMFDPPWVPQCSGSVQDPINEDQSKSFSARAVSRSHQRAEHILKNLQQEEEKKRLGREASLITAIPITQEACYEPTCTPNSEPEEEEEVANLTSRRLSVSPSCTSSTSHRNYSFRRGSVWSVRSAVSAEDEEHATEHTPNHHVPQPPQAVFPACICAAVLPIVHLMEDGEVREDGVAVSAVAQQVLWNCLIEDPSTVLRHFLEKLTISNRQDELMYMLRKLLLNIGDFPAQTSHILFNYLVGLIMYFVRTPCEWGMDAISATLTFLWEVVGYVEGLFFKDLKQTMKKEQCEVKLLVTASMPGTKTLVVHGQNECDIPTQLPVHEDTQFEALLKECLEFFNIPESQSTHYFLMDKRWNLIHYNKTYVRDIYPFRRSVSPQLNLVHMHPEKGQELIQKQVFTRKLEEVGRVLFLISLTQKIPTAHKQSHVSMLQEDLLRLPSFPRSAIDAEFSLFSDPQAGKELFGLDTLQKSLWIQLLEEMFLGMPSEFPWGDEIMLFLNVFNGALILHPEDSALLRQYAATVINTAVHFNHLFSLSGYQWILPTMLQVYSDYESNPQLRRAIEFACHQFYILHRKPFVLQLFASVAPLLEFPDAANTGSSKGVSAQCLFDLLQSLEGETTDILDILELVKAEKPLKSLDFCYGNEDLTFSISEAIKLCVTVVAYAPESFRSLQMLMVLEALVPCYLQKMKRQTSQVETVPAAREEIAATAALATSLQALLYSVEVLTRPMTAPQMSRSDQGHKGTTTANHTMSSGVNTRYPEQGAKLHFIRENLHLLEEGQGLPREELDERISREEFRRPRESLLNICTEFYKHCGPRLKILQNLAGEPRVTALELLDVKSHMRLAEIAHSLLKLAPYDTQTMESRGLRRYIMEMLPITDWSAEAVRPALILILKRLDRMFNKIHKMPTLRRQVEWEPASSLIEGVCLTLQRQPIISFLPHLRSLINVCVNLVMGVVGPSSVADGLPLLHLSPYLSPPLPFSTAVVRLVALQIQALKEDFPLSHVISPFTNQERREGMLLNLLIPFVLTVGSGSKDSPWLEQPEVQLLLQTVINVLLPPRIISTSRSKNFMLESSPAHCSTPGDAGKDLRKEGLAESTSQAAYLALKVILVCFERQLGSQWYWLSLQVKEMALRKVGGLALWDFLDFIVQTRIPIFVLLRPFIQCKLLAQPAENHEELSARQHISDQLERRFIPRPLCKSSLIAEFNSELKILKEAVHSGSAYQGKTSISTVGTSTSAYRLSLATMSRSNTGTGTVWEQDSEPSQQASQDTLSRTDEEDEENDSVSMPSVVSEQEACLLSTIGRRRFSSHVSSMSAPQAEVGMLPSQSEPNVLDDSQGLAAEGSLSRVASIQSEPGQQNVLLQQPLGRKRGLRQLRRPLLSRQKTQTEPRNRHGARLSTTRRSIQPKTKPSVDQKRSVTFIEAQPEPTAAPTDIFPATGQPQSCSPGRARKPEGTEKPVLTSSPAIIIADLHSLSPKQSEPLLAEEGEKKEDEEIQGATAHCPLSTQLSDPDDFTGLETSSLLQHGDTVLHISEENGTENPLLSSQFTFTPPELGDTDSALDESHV

On to “UNC79 (mouse), wild type, non-tagged, Q0KK59 1-2596”, for which the reduction of apparent UNC80–UNC79 affinity (co-precipitated UNC79) against WT UNC80 was found to be 60%.
